From US20240092867A1 (UNIVERSITY OF CHICAGO, published 2024)

Columns and labels:
laminin-411 [1] = target: T1, laminin-411 (human, UniProt Q16363 25-1823; P07942 22-1786; P11047 34-1609); assay: ELISA; plate coated with 10 µg/mL laminin, 1 µg/mL PlGF-2 in solution without or with 10 µM heparin, bound GF detected with antibody [panel B]
T1 construct: Full-length recombinant human laminin isoform (BioLamina); chains read from the isoform name
Protocol: (§1) FIGS. 2A-C. […] ELISA plates were coated with 10 μg/mL laminin and further incubated with a 1 μg/mL (A) VEGF-A165, (B) PlGF-2, or (C) FGF-2 solution in the absence or presence of excess (10 μM) heparin. Bound GFs were detected using a specific antibody for each GF (n=4, mean±SEM). Statistical analyses were done using the Mann-Whitney U test by comparing the signals with and without heparin. *p<0.05, **p<0.01.
(§2) Because the GFs that bound to laminins have also been previously reported to bind to other ECM glycoproteins through HBDs, it was hypothesized that HBDs of laminins might be responsible for the interactions between GFs and laminin. To address this hypothesis, ELISA assays were repeated for VEGF-A165, PlGF-2 or FGF-2 in the presence of heparin added in excess (10 μM). […] To further confirm this, the inventors tested direct GF binding to the LG domains from human laminin α3, α4 and α5, within which HBDs of laminin were localized.

laminin-111 [2] = target: T2, laminin-111 (human, UniProt P25391 18-3075; P07942 22-1786; P11047 34-1609); assay: as above
T2 construct: Full-length recombinant human laminin isoform (BioLamina); Chain composition is read from the isoform name
Protocol: as §1, §2

laminin-421 [3] = target: T3, laminin-421 (human, UniProt Q16363 25-1823; P55268 33-1798; P11047 34-1609); assay: as above
T3 construct: Full-length recombinant human laminin isoform (BioLamina); chains read from the isoform name
Protocol: as §1, §2

laminin-211 [4] = target: T4, laminin-211 (human, UniProt P24043 23-3122; P07942 22-1786; P11047 34-1609); assay: as above
T4 construct: Full-length recombinant human laminin isoform (BioLamina); chains read from the isoform name
Protocol: as §1, §2

laminin-521 [5] = target: T5, laminin-521 (human, UniProt O15230 36-3695; P55268 33-1798; P11047 34-1609); assay: SPR, laminin-521 immobilised, GF flowed, Langmuir fit
T5 construct: Full-length recombinant human laminin isoform (BioLamina); chains read from the isoform name
Protocol: (§3) A450 nm represents absorbance at 450 nm. BSA-coated wells served as negative controls (n=4, mean±SEM). Signals greater than 0.1 (grey box) are considered to be significant. […] Experimental curves were fitted with Langmuir binding kinetics.
(§4) The obtained binding curves were fitted with Langmuir binding kinetics to calculate specific dissociation constants (KD) (FIG. 1B).
(§5) SPR analysis was performed as described previously². In brief, measurements were made with a Biacore 3000 SPR system (GE Healthcare). […] VEGF-A165, PDGF-BB, or PlGF-2 was flowed at increasing concentrations in the running buffer at 20 μL/min. The sensor chip was regenerated with 50 mM NaOH for every cycle. Specific bindings of GFs to laminin were calculated by comparison to a non-functionalized channel used as a reference. Experimental results were fitted with Langmuir binding kinetics using BIAevaluation software (GE Healthcare).

[6] = target: T6, recombinant laminin α3 2928-3150 protein (linker domain and LG4 domain) (human, UniProt Q16787 2928-3150); assay: ELISA, LG domain protein coated, GF 1 µg/mL
T6 construct: range 2928-3150; Made in HEK-293F cells; also called laminin alpha 3 LG domain recombinant protein
T6 sequence: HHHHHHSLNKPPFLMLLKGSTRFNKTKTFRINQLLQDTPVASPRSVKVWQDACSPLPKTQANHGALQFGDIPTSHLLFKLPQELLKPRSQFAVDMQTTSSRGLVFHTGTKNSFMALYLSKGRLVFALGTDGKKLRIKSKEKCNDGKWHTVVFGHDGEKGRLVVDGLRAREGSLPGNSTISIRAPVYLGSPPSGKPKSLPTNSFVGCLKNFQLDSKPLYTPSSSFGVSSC
Protocol: (§6) Affinity of GFs against recombinant laminin LG domains. ELISA plates were coated with 1 μg/mL (A) α3₂₉₂₈₋₃₁₅₀, (B) α4₈₂₆₋₁₈₁₆, or (C) α5₃₀₂₆₋₃₄₈₂ and further incubated with 1 μg/mL of VEGF-A165, VEGF-A121, PlGF-2, PlGF-1, PDGF-BB, or FGF-2 solution. Bound GFs were detected using a specific antibody for each GF (n=4, mean±SEM). Statistical analyses were done using the Mann-Whitney U test by comparing the signals obtained from the laminin domain- and the BSA-coated wells. *p<0.05, **p<0.01. […] A SPR chip was functionalized with the laminin α3₂₉₂₈₋₃₁₅₀ recombinant protein (˜1000 RU), and each GF was flowed over the chip at indicated concentrations. Curves represent the specific responses (in RU) to laminin. Experimental curves were fitted with Langmuir binding kinetics.
ELISA tests were performed as described above. […] 1 μg/mL of BSA served as non-binding protein control. After blocking with 2% BSA PBS-0.05% Tween 20 (PBS-T) solution, 1 μg/mL of the recombinant human proteins (VEGF-A121, VEGF-A165, PlGF-1, PlGF-2, PDGF-BB or FGF-2) or 10 μg/mL of biotinylated heparin (Sigma-Aldrich) were added. Bound GF was detected with biotinylated antibodies for human VEGF, PlGF, PDGF-BB, or FGF-2 (R&D Systems). The antibodies were detected by streptavidin-HRP (R&D Systems).

[7] = target: T7, recombinant human vWF A1 domain (human, UniProt P04275 1261-1468, limits assumed); assay: ELISA, A1 domain coated, GF 1 µg/mL
T7 construct: domain: A1; also called vWF A1 recombinant protein; recombinant A1 domain
Protocol: ELISA tests were performed as described above. […] After blocking with 2% BSA solution containing PBS-T, 1 μg/mL of the recombinant human proteins VEGF-A121, VEGF-A165, PlGF-1, PlGF-2, PDGF-BB, FGF-2, CXCL-12α and CXCL-12γ were added. 1 μg/mL of BSA served as non-binding protein control. Bound GF or chemokine was detected with biotinylated antibodies for human VEGF-A, PlGF, PDGF-BB, FGF-2, or CXCL-12 (R & D Systems). The antibodies were detected by streptavidin-HRP (R & D Systems). Color development and the absorbance measurement were done as described above.

human plasma-derived vWF [8] = target: T8, human plasma-derived vWF (human, UniProt P04275 764-2813); assay: ELISA, GF coated 50 nM, vWF 1 µg/mL
T8 construct: mature; also called plasma-derived purified vWF; von Willebrand factor

laminin-521 [9] = target: T5, laminin-521; assay: SPR; laminin-521 immobilised on the chip (~2000 RU), PlGF-2 flowed at 20-75 nM; Langmuir fit
Protocol: as §3, §4, §5

human plasma-derived vWF [10] = target: T8, human plasma-derived vWF; assay: SPR; plasma-derived vWF immobilised (~2000 RU), PDGF-BB flowed at 25-200 nM; heterogeneous ligand-parallel reactions fit, site 1 [panel D]
Protocol: (§7) A450 nm represents absorbance at 450 nm. Signals from VEGF-A121 served as a baseline, and bovine serum albumin (BSA) served as a negative control (n=4, mean±SD). […] Experimental curves were fitted with (C) 1:1 Langmuir fit model and (D) heterogeneous ligand-parallel reactions binding.
(§8) SPR assays were performed as described previously2. In brief, measurements were made with a Biacore X100 SPR system or Biacore 3000 SPR system (GE Healthcare). […] Recombinant human VEGF-A165, VEGF-A121, or PDGF-BB was flowed at increasing concentrations in the running buffer at 30 μL/min. The sensor chip was regenerated with glycine at pH 2 for every cycle.

human plasma-derived vWF [11] = target: T8, human plasma-derived vWF; assay: SPR, vWF immobilised, GF flowed, heterogeneous ligand-parallel reactions fit
Protocol: as §7, §8

human plasma-derived vWF [12] = target: T8, human plasma-derived vWF; assay: SPR; plasma-derived vWF immobilised (~2000 RU), PDGF-BB flowed at 25-200 nM; heterogeneous ligand-parallel reactions fit, site 2 [panel D]
Protocol: as §7, §8

laminin-411 [13] = target: T1, laminin-411; assay: ELISA, GF coated, laminin 10 nM
laminin-111 [14] = target: T2, laminin-111; assay: ELISA, GF coated, laminin 10 nM
laminin-421 [15] = target: T3, laminin-421; assay: ELISA, GF coated, laminin 10 nM
laminin-211 [16] = target: T4, laminin-211; assay: ELISA, GF coated, laminin 10 nM
[17] = target: T6, recombinant laminin α3 2928-3150 …; assay: SPR, α3 2928-3150 immobilised, GF flowed, Langmuir fit
Protocol: as §6, §2
SPR analysis was performed as described previously². […]

[18] = target: T6, recombinant laminin α3 2928-3150 …; assay: SPR; α3 2928-3150 recombinant protein immobilised (~1000 RU), PDGF-BB flowed at 0.325-41.6 nM; Langmuir fit [panel D]
Text: Statistical analyses were done using the Mann-Whitney U test by comparing the signals obtained from the laminin domain- and the BSA-coated wells. *p<0.05, **p<0.01. […] A SPR chip was functionalized with the laminin α3₂₉₂₈₋₃₁₅₀ recombinant protein (˜1000 RU), and each GF was flowed over the chip at indicated concentrations. Curves represent the specific responses (in RU) to laminin. Experimental curves were fitted with Langmuir binding kinetics.
as §2
SPR analysis was performed as described previously². In brief, measurements were made with a Biacore 3000 SPR system (GE Healthcare). […] VEGF-A165, PDGF-BB, or PlGF-2 was flowed at increasing concentrations in the running buffer at 20 μL/min. The sensor chip was regenerated with 50 mM NaOH for every cycle.

laminin-521 [19] = target: T5, laminin-521; assay: SPR; laminin-521 immobilised on the chip (~2000 RU), PDGF-BB flowed at 25-200 nM; Langmuir fit
Protocol: as §3, §4, §5

T3 sequence (Q16363 25-1823 limits assumed, chain 1 of 3): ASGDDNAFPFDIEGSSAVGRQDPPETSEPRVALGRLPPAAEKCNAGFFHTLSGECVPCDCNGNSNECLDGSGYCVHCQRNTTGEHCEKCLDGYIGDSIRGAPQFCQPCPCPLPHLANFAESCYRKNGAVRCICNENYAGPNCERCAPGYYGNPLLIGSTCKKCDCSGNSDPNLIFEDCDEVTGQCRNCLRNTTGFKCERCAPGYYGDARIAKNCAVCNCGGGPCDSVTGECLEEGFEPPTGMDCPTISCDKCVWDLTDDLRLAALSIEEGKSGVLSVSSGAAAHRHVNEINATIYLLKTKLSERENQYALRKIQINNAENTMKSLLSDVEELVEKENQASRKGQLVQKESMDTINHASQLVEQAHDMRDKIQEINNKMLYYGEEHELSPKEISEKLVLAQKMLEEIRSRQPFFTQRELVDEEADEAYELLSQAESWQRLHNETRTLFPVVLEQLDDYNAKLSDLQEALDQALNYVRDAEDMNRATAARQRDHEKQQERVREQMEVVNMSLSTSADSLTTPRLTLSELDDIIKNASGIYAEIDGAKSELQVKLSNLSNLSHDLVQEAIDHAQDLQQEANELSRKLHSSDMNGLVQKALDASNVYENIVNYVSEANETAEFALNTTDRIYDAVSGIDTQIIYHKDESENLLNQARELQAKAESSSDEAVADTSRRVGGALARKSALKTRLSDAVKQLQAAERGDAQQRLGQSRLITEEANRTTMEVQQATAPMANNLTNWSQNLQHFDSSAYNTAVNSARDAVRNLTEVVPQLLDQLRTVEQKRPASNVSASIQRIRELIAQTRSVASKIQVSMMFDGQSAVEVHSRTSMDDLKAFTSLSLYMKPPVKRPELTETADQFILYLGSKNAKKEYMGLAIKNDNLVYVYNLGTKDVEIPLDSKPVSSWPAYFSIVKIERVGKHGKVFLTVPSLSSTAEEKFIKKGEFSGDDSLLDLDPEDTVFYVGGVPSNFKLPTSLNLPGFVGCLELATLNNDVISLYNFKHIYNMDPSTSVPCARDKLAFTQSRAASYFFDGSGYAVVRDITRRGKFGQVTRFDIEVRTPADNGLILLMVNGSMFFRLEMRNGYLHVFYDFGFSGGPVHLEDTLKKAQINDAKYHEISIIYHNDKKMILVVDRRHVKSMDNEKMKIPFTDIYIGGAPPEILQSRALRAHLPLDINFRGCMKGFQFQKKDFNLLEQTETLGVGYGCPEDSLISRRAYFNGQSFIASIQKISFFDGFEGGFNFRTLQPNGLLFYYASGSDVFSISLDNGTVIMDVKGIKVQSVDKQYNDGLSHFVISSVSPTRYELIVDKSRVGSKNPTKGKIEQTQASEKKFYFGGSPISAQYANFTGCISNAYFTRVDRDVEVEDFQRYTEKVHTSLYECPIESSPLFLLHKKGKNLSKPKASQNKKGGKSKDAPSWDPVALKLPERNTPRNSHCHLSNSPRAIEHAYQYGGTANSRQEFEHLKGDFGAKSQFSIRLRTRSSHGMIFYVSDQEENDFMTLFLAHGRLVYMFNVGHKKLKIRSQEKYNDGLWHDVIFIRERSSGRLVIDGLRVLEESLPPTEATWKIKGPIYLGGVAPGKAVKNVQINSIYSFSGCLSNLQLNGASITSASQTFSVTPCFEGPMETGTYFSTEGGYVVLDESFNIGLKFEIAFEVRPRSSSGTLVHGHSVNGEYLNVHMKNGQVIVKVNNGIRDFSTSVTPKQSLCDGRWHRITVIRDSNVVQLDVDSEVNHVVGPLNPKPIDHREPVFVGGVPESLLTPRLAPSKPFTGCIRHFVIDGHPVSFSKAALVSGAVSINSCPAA
T3 sequence (P55268 33-1798 limits assumed, chain 2 of 3): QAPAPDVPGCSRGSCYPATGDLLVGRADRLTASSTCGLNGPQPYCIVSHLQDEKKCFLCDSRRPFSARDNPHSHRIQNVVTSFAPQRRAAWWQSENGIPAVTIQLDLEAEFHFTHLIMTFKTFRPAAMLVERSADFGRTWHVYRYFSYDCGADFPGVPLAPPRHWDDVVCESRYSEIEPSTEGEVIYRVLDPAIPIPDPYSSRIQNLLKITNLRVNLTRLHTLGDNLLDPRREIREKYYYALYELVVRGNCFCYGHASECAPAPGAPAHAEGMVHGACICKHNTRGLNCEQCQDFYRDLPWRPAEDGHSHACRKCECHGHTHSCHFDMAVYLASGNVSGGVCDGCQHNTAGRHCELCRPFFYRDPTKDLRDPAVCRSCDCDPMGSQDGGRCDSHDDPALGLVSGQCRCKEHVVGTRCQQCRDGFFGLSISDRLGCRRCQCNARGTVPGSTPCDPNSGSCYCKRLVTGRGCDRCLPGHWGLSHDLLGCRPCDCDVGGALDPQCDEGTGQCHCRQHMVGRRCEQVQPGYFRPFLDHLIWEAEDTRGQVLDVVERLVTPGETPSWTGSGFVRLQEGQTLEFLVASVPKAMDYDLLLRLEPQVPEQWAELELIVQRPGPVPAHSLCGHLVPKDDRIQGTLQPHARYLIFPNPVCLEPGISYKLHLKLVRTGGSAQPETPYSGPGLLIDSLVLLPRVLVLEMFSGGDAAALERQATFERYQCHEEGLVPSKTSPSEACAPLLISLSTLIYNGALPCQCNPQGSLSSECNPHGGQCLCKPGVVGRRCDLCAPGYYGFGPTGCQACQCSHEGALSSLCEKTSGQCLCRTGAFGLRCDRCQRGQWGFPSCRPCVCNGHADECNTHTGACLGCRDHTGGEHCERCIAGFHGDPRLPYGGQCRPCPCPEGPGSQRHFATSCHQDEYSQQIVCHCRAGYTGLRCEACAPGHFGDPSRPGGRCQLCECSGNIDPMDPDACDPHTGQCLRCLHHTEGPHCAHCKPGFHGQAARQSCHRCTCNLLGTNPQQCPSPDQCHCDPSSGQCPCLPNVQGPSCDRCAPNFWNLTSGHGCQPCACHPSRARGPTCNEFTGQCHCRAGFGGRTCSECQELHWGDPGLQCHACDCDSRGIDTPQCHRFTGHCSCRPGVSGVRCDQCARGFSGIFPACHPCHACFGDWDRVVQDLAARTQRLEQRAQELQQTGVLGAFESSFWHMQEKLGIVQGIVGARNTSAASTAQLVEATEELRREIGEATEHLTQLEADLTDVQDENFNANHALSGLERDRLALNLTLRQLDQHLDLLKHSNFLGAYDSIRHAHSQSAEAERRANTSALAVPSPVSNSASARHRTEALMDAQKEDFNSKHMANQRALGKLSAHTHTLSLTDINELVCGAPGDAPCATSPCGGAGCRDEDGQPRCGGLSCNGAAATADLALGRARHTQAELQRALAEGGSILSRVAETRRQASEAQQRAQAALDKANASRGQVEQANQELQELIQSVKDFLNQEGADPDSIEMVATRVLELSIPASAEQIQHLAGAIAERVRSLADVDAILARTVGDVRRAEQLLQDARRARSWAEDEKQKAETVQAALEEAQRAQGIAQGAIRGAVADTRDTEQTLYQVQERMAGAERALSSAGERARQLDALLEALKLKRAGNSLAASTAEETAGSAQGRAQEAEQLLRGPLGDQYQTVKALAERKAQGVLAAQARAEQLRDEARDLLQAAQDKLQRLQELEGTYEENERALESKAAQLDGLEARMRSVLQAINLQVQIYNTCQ
T3 sequence (P11047 34-1609 limits assumed, chain 3 of 3): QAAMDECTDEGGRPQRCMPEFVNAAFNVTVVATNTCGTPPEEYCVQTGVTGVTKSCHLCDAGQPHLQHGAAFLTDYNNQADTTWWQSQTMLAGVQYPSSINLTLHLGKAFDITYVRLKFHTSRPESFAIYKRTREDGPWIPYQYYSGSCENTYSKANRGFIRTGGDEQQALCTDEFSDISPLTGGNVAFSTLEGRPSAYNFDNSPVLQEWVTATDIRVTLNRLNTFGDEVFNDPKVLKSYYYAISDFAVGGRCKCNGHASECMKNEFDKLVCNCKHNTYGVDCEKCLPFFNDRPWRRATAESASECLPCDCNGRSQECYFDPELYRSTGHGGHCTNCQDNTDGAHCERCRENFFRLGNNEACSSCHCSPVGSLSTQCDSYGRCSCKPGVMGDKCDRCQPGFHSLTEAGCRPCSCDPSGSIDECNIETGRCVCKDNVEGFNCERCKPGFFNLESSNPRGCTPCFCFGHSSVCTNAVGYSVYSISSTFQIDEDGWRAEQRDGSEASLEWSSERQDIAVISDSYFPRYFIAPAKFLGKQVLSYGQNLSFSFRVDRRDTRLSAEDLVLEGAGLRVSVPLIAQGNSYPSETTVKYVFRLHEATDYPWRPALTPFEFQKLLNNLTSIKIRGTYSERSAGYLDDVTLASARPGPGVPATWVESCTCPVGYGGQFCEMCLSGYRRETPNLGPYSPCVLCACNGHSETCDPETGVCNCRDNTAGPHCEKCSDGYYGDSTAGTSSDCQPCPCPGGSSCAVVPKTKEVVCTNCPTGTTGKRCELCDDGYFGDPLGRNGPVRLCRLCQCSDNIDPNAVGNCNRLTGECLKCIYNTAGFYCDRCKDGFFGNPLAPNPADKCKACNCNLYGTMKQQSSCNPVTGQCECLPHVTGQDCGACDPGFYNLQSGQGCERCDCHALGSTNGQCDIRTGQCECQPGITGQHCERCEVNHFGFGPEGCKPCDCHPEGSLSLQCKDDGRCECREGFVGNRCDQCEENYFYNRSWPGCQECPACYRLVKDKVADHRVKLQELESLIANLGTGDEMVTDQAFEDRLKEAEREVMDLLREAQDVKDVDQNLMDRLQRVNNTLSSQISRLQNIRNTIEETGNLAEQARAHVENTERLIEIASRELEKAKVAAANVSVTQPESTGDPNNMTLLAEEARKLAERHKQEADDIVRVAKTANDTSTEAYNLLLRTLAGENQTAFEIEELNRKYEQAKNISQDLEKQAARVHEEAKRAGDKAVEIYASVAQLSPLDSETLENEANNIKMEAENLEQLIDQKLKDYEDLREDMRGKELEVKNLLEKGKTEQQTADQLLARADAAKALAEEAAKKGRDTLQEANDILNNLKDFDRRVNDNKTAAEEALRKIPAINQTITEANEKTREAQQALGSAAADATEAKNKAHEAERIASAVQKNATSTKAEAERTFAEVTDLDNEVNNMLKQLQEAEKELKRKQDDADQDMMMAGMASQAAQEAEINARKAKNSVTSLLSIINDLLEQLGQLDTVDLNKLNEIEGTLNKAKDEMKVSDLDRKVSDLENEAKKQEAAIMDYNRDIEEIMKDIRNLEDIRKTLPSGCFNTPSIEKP

B1: placental growth factor (PlGF)-2 (ligand, human, UniProt P49763-3 19-170, looked up)
chain: LPAVPPQQWALSAGNGSSEVEVVPFQEVWGRSYCRALERLVDVVSEYPSEVEHMFSPSCVSLLRCTGCCGDENLHCVPVETANVTMQLLKIRSGDRPSYVELTFSQHVRCECRPLREKMKPERRRPKGRGKRRREKQRPTDCHLCGDAVPRR
notes: mature; Purchased in mature form
laminin-411 [1]
  binding result: binds
laminin-111 [2]
  binding result: binds
laminin-421 [3]
  binding result: binds
laminin-211 [4]
  binding result: binds
laminin-521 [5]
  Kd: 12.9 nM
[6]
  binding result: binds
[7]
  binding result: binds
Human plasma-derived vWF [8]
  binding result: binds
laminin-521 [9]
  koff: 0.0246 s⁻¹
  kon: 1.91e+06 M⁻¹ s⁻¹

B2: platelet-derived growth factor (PDGF)-BB (ligand, human, UniProt P01127 82-190, looked up)
chain: SLGSLTIAEPAMIAECKTRTEVFEISRRLIDRTNANFLVWPPCVEVQRCSGCCNNRNVQCRPTQVQLRPVQVRKIEIVRKKPIFKKATVTLEDHLACKCETVAAARPVT
notes: as for B1
laminin-521 [5]
  Kd: 24.2 nM
Human plasma-derived vWF [10]
  Kd: 154 nM
  koff: 0.0664 s⁻¹
  kon: 430000 M⁻¹ s⁻¹
Human plasma-derived vWF [11]
  Kd: 24 nM
Human plasma-derived vWF [12]
  Kd: 23.8 nM
  koff: 0.00508 s⁻¹
  kon: 213000 M⁻¹ s⁻¹
laminin-411 [13]
  binding result: binds
laminin-111 [14]
  binding result: binds
laminin-421 [15]
  binding result: binds
laminin-211 [16]
  binding result: binds
[17]
  Kd: 10.2 nM
[18]
  Kd: 12.1 nM
  koff: 0.0136 s⁻¹
  kon: 1.12e+06 M⁻¹ s⁻¹
laminin-521 [19]
  koff: 0.00497 s⁻¹
  kon: 206000 M⁻¹ s⁻¹
